Results from paper PMC5673231.

Target: organic anion transporting polypeptide (OATP) 1B3 (UniProt Q9NPD5)
Chain of UniProt Q9NPD5 (Q9NPD5 whole entry): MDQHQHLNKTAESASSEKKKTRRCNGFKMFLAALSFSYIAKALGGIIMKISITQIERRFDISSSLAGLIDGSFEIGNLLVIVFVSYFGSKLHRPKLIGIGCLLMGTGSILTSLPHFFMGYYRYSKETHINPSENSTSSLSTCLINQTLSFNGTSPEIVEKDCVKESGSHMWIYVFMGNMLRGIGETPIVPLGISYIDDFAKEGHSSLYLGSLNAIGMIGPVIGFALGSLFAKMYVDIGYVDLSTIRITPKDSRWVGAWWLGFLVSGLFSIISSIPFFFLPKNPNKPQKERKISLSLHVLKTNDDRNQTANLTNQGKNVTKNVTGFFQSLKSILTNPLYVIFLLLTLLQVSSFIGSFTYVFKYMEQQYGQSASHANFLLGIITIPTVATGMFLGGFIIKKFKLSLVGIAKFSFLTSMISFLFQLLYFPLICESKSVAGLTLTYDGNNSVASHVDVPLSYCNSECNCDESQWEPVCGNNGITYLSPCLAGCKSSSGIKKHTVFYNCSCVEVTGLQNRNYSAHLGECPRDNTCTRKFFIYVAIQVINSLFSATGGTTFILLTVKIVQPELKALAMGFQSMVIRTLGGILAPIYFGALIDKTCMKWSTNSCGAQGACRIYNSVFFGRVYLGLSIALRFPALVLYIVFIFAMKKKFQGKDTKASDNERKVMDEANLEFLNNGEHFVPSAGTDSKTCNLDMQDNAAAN

Km (called the affinity constant) of CCK-8 transport, [^3H]CCK-8 accumulation 0.1-40 uM, 3 min, in HEK293-OATP1B3 cells pretreated with bortezomib (50 nM, 7 h), Michaelis-Menten fit: 4.9 µM
Km (called the affinity constant) of CCK-8 transport, [^3H]CCK-8 accumulation 0.1-40 uM, 3 min, in HEK293-OATP1B3 cells pretreated with vehicle control, Michaelis-Menten fit: 5.8 µM
Substance: octapeptide cholecystokinin 8
